One data set addresses T1, EphA8-Fc (Homo sapiens, UniProt P29322).
T1 construct: EphA8, human, extracellular domain
The data set can be described thus: BLI; IgG captured on anti-human biosensors, quenched with Fc; receptor ECD-Fc in solution, three-fold dilutions from 300 nM; PBS, 1% BSA, 0.05% Tween 20; 25°C; 1:1 binding model. The conditions noted are these: both partners purified. Background: BLI is a label-free optical method that tracks binding on a fibre tip over time.

The target of a further data set is T2, EphA2-Fc (Homo sapiens, UniProt P29317).
T2 construct: EphA2, human, extracellular domain; Eph ECDs used for the phage selections were from R&D; also called EphA2 ECD
The data set is described as above. Conditions: both partners purified.

The target in another data set is T3, EphA4-Fc (Homo sapiens, UniProt P54764).
T3 construct: EphA4, human, extracellular domain
Described as above. The conditions noted are these: both partners purified.

The target in data set [1] is T4, EphA2 extracellular domain (ECD) (human, UniProt P29317).
T4 construct: EphA2, human, extracellular domain (LBD, CRD, FN1, FN2); The catalogue number is printed for the SEC and the selections; also called EphA2 ECD; EphA2-His; source: bought: R&D Systems (3035-A2)
The data set can be described thus: SPR; EphA2 ECD immobilised by amine coupling on GLC chip, Fabs from 100 nM in three-fold dilutions, PBS, 25°C, 1:1 Langmuir model. Conditions: both partners purified. For orientation: SPR reads the build-up and loss of mass on a sensor chip optically.

Data set [2] concerns the molecule itself. The data set can be described thus: crystal structure; Fab^S1CEL1 with EphA2 LBD-CRD, 4.6 Å; 16% PEG 8000, 100 mM CHES pH 9.0, 200 mM magnesium sulfate; one Fab and two LBD-CRD in the asymmetric unit.

The values below come from paper PMC12102760 (Protein Science : A Publication of the Protein Society, 2025).

T4 sequence (P29317 24-537): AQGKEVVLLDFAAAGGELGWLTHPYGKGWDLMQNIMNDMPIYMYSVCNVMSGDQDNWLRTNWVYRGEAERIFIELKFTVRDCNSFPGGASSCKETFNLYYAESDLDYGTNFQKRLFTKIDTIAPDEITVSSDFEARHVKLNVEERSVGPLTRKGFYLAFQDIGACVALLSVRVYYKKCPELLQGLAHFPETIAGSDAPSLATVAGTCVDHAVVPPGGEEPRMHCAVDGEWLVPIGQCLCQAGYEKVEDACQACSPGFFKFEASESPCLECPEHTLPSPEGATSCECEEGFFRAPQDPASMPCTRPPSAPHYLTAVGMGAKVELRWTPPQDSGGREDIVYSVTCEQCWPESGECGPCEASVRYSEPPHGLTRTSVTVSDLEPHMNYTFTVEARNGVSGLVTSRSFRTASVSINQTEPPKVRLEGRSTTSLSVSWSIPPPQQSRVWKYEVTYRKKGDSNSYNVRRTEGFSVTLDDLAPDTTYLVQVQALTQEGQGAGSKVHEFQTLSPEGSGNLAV
T2 sequence (P29317 24-537): as above
T3 sequence (P54764 20-547): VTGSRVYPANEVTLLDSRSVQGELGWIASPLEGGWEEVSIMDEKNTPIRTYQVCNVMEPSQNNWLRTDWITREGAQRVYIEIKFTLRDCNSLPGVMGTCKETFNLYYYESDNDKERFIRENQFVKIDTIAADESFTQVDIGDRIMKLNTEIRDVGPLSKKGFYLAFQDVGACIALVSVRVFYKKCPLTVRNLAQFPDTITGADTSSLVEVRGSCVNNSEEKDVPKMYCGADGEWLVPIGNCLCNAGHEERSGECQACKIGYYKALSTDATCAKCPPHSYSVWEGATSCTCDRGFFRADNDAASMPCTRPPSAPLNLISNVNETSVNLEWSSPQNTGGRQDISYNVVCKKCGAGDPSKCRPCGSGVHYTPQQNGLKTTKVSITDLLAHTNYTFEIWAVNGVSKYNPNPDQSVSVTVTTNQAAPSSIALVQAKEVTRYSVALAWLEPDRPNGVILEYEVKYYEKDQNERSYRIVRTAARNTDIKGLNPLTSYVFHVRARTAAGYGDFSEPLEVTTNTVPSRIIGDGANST
T1 sequence (P29322 28-542): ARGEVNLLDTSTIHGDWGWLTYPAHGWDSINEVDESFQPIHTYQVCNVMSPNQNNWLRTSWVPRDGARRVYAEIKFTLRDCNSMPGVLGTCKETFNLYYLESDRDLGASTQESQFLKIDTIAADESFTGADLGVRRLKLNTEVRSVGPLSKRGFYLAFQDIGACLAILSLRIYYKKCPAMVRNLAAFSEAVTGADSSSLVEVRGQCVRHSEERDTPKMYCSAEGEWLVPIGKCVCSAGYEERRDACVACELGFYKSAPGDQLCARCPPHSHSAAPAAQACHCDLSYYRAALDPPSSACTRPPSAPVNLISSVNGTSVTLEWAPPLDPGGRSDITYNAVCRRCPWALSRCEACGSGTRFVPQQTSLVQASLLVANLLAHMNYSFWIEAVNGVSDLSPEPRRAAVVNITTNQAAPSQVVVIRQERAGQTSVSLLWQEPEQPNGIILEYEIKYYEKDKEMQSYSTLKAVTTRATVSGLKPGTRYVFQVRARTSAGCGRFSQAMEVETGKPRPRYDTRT

B1: IgG L1 (antibody, V domains shown)
VH: EVQLVESGGGLVQPGGSLRLSCAASGFTISSSYIHWVRQAPGKGLEWVASISSYYGSTSYADSVKGRFTISADTSKNTAYLQMNSLRAEDTAVYYCARSHYSVWWGWHSVSYYAAFDYWGQGTLVTVSS
VL: DIQMTQSPSSLSASVGDRVTITCRASQSVSSAVAWYQQKPGKAPKLLIYSASSLYSGVPSRFSGSRSGTDFTLTISSLQPEDFATYYCQQGSAPFTFGQGTKVEIK
notes: full-length IgG constant region not specified; as the light chain of m12; Bivalent full-length IgG; also called L1 IgG; Ab L1; source: mammalian cells, purified; copies: 2 + 2
As usually defined, the Kd is the concentration at which binding is half-saturated. Read a low Kd as higher affinity. Regarding B1, the binding result with EphA8-Fc and in the data set with EphA4-Fc was “no binding (tested: 300 nM)” throughout. Further, binding in the data set with EphA2-Fc was characterised by a dissociation constant (Kd) of 0.27 nM.

B2: Fab L1 (Fab, V domains shown)
VH: EVQLVESGGGLVQPGGSLRLSCAASGFTISSSYIHWVRQAPGKGLEWVASISSYYGSTSYADSVKGRFTISADTSKNTAYLQMNSLRAEDTAVYYCARSHYSVWWGWHSVSYYAAFDYWGQGTLVTVSS
VL: DIQMTQSPSSLSASVGDRVTITCRASQSVSSAVAWYQQKPGKAPKLLIYSASSLYSGVPSRFSGSRSGTDFTLTISSLQPEDFATYYCQQGSAPFTFGQGTKVEIK
notes: synthetic Fab from phage library F; The deposited chains carry crystallisation-enhancing framework substitutions that this Fab lacks; source: E. coli BL21, purified (Protein A)
B2 showed a Kd in data set [1] of less than 1 nM.

B3: Fab C1 (Fab, V domains shown)
VH: EVQLVESGGGLVQPGGSLRLSCAASGFTIYYSSMHWVRQAPGKGLEWVASISSYYGYTYYADSVKGRFTISADTSKNTAYLQMNSLRAEDTAVYYCARYYAMDYWGQGTLVTVSS
VL: DIQMTQSPSSLSASVGDRVTITCRASQSVSSAVAWYQQKPGKAPKLLIYSASSLYSGVPSRFSGSRSGTDFTLTISSLQPEDFATYYCQQYYGYGGYPITFGQGTKVEIK
notes: as for B2
For the molecule B3, the Kd in data set [1] is less than 1 nM.

B4: EphA2 LBD-CRD (residues 23-326) (domain or fragment, human, UniProt P29317 23-326, looked up)
chain: AAQGKEVVLLDFAAAGGELGWLTHPYGKGWDLMQNIMNDMPIYMYSVCNVMSGDQDNWLRTNWVYRGEAERIFIELKFTVRDCNSFPGGASSCKETFNLYYAESDLDYGTNFQKRLFTKIDTIAPDEITVSSDFEARHVKLNVEERSVGPLTRKGFYLAFQDIGACVALLSVRVYYKKCPELLQGLAHFPETIAGSDAPSLATVAGTCVDHAVVPPGGEEPRMHCAVDGEWLVPIGQCLCQAGYEKVEDACQACSPGFFKFEASESPCLECPEHTLPSPEGATSCECEEGFFRAPQDPASMPCT
notes: EphA2, human, LBD-CRD, residues 23-326; A thrombin cleavage site precedes the C-terminal hexahistidine tag; also called LBD-CRD1; LBD-CRD2; source: kifunensine culture, deglycosylated by endoH
On to B4, for which, in data set [2], the binding result is on record as “binds”.

B5: Fab F1 (Fab, V domains shown)
VH: EVQLVESGGGLVQPGGSLRLSCAASGFDSGAYLRHWVRQAPGKGLEWVASIYPSYGYTSYADSVKGRFTISADTSKNTAYLQMNSLRAEDTAVYYCARSAASYYGYWHWYHFSPGMDYWGQGTLVTVSS
VL: DIQMTQSPSSLSASVGDRVTITCRASQSVSSAVAWYQQKPGKAPKLLIYSASDLYSGVPSRFSGSRSGTDFTLTISSLQPEDFATYYCQQYVSGGWLITFGQGTKVEIK
notes: Fab^S1F1 in PDB 8T7F (chains C and G, heavy and light chain); Optimised from the parental Fab F1′ (Enderle et al., 2021); The deposited chains carry framework substitutions that this Fab lacks; source: E. coli BL21, purified (Protein A)
In data set [1], B5 came in with a Kd of less than 1 nM.
